The source of these data is the nanobody polyreactivity screen of Harvey et al. (2022).

This data set in a line: yeast display, Sf9 membrane polyspecificity reagent, FACS + sequencing; frameworks hold sequencing errors. The method, boiled down:
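After 36–48 hours of galactose induction, yeast (Saccharomyces cerevisiae BJ5465) displaying a synthetic nanobody library were stained at 4 °C for 1 hour with 10% biotinylated, detergent-solubilized Sf9 membrane reagent. Streptavidin microbeads enriched the stained cells before FACS sorting into low and high (top ~1%) gates on anti-HA and streptavidin fluorescence. Each clone's polyreactivity label reflects its gate of origin.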
Regarding “QVQLVESGGGLVQAGGSLRLSCAASGRIFSYKAMGWYRQAPGKERELVAAISFSTTSTYYADSVKGRFTISRDNAKNTVYLQMYSLKPEDTAVYYCNTPGLPIDSEYDYWGQGTQVTVSS”, the “polyreactivity (PSR sort gate)” value was “low polyreactivity”.
The same measure for “QVQLVESGGGLVQAGGSLRLSCAASGRIFSYNAMGWYRQAPGKERELDAAISWSTGSTFYADSVKGRFTISRDNAKNTVYLQMNSLKPEDTAVYYCAREYYYRRGFFLRGYWGQGTQVTVSS”: “high polyreactivity”; for “QVQLVESGGGLVQAGGSLRLSCAASGRIFSYNAMGWYRQAPGKERELVAAISSDGSTYYADSVKGRFTISRDNAKNTVYLQMNRLKPEDTAVYYCAAYPRVNGNIHSTGDYWGQGTQVTVSS”: “low polyreactivity”.
The same measure for “QVQLVESGGGLVQAGGSLRLSCAASGRIFSYNTMGWYRQAPGKERELVAAISGGGTTYYADSVKGRFTISRDNAKNTVYLQMNSLKPEDTAVYYCNAEYYGYSWRRTKYGYWGQGTQVTVSS”: “high polyreactivity”.
Take “QVQLVESGGGLVQAGGSLRLSCAASGRIFSYYAMGWYRHAPWKERELVAAISRSGAKTYYADSVKGRFTISRDNAKNSVYLQMNSLKPEDTAVYYCNADTLRRRYNYWGQGTQVTVSS”: the “polyreactivity (PSR sort gate)” value is recorded as “high polyreactivity”.
The same measure for “QVQLVESGGGLVQAGGSLRLSCAASGRIFSYYAMGWYRQAPGKERELVAAISWSGGRTYYADSVKGRFTISRDNAKNTVYLQMNSLKPEDTAVYYCAARLKLYLPRSAYDYWGQGTQVTVSS”: “high polyreactivity”; for “QVQLVESGGGLVQAGGSLRLSCAASGRIFSYYAMGWYRQAPGKERELVASITSGGSTYADSVKGRFTISRDNAKNTVYLQMNSLKPEDTAVYYCAKGYYWLSTYGDSRYGYWGQGTQVTVSS”: “high polyreactivity”.
Turning to “QVQLVESGGGLVQAGGSLRLSCAASGRIFSYYAMGWYRQAPGKERELVATINSGGSTNYADSVKGRFTISRDNAKNTVYLQMNSLKPVATAVYYCAASPVWWYDYWGQGTQVTVSS”, the “polyreactivity (PSR sort gate)” value is “low polyreactivity”.
The same measure for “QVQLVESGGGLVQAGGSLRLSCAASGRIFSYYAMGWYRQAPGKERELVATISGSGGSTYYADSVKGRFTNSRDNAKNNVYLQMNSLKPEDTAVYYCAARRSGRTRYYWGQGTQVTVSS”: “high polyreactivity”; for “QVQLVESGGGLVQAGGSLRLSCAASGRIFSYYAMGWYRQAPGTERELVAAISWSGSRTNYADSVKGRFTISRDNAKNTVYLQMKSLKPEDTAVYYCAAEDWSTQGSATVQYDYWGQGTEVTVSS”: “high polyreactivity”; for “QVQLVESGGGLVQAGGSLRLSCAASGRIFSYYDMGWYRQAPGKERELVARISYSGDSTYYADSVKGRFTISRDNAKNTVYLQMNSLKPEDTAVYYCADEVDSGYSEYYWGQGTQVTVSS”: “low polyreactivity”.
The same measure for “QVQLVESGGGLVQAGGSLRLSCAASGRIFTAYYAMGWYRQEPGKESELVASISSSGTSTYADSVKGRFTISRDNAKNSVYLQMISLKPEDTAVYYCATRKLRTRRYDYGYWGQGTQVTVSS”: “low polyreactivity”.
The result for “QVQLVESGGGLVQAGGSLRLSCAASGRIFTFYAMGWYRQAPAKERELVAAISSGGSTYYADSVKGRFTISRDNAKNTVYLQMNSLKPEDTAVYYCAAEPVWYADYDYWGQGTQVTVSS” reads “low polyreactivity”; that for “QVQLVESGGGLVQAGGSLRLSCAASGRIFTGYAMGWYRQAPGKERELVAAISSRGGSTYYADSVKGRFTISRDNAKNTVYLQMNSLKPEDTAVYYCNAYQWRHRYTMYYWGQGTQVTVSS”, “high polyreactivity”; that for “QVQLVESGGGLVQAGGSLRLSCAASGRIFTHNAMGWYRQAPGKERELVAAISYSGVSTYYADSVKGRFTISRDNAKNTVYLHMNSLKPEDTAVYYCNALIQSWRARIRRYYWGQGTQVTVSS”, “low polyreactivity”.
As to “QVQLVESGGGLVQAGGSLRLSCAASGRIFTHNAMGWYRQAPGKERELVAAITSGGRTTYADSVKGRFTISRDNAKNTVYLQMNSLKPEDTAVYYCNADTGLGSLDFYNRDYWGHGTQVTVSS”, the “polyreactivity (PSR sort gate)” value is recorded as “low polyreactivity”.
The same measure for “QVQLVESGGGLVQAGGSLRLSCAASGRIFTHNVMGWYRQAPGKERELVAAISGGGGSTYYADSVKGRFTISRDNAKNTVYLQMNSLKPEDTAVYYWAAVGFGRQGQEDYWGQGTHVTVSS”: “low polyreactivity”.
The result for “QVQLVESGGGLVQAGGSLRLSCAASGRIFTIYAMGWYRQAPGKERELVAAISDRGTRTYYADSVKGRFTISRDNAKNTVYLQMNSLKPEDSEVYYCATDALYTYGYDYWGQGTQVTVSS” reads “low polyreactivity”.
“QVQLVESGGGLVQAGGSLRLSCAASGRIFTIYAMGWYRQAPGKERELVATISRRGGSTYYADSVKGRFTISRDNAKNTVYLQMNSLKPEDTAVYYCAADSVITWWAYDYWGQGTQVTVSS”: the “polyreactivity (PSR sort gate)” value is “high polyreactivity”.
As for “QVQLVESGGGLVQAGGSLRLSCAASGRIFTKYAMGWYRQAPGKERELVAAISGSGGNTYYADSVKGRFTISRDNAKNTVYLQMNSLKPEDTAVYYCAVESWRYVGFGYWGQGSQVTVSS”, the “polyreactivity (PSR sort gate)” value was “high polyreactivity”.
“QVQLVESGGGLVQAGGSLRLSCAASGRIFTKYAMGWYRQAPGKERELVASISSGGSTYYADSVKGRFTISRDNAKNTVYLQMNSLKPEDTAVYYCARSTGTSRRMDDWGQGTQVTVSS”: the “polyreactivity (PSR sort gate)” value is “high polyreactivity”.
The same measure for “QVQLVESGGGLVQAGGSLRLSCAASGRIFTNAMGWYRQAPGKERELVAAISGGSNTYYADSVKGRFTISRDNAKNTVYLQMNSLKPEDTAVYYCNTDDLWWDGGYDYWGQGTQVTVSS”: “low polyreactivity”; for “QVQLVESGGGLVQAGGSLRLSCAASGRIFTPNAMGWSRQAPGKERELVAAITWSGDNTYADSVKGRFTISRDNAKNTVYLQMNSLKPEDTAVYYCAAAYGYGHKKYGYWGQGTQVTVSS”: “low polyreactivity”.
The result for “QVQLVESGGGLVQAGGSLRLSCAASGRIFTPYPMGWYRQAPGKERELVAVIRDGSTYYADSVKGRFTISRDNAKNSVYLQMNSLKPEDSAVYYCRYDIWVWWSGAYDYWGQGTQVTVSS” reads “low polyreactivity”; that for “QVQLVESGGGLVQAGGSLRLSCAASGRIFTPYVLGWYRQAPGKERELVARISWTGSSTYYADSVKGRFTISRDNAKNTVYLQMNSLKPEDTAVYYCAKRLTRFYTRLEYWGQGTQVTVSS”, “low polyreactivity”.
With “QVQLVESGGGLVQAGGSLRLSCAASGRIFTPYVMGWYRQAPGKERELVARISWTGSSTYYADSVKGRFTISRDNAKNTVYLQMNSLKPEDTAVYYCAKRLTRFYTRLEYWGQGTQVTVSS”, the “polyreactivity (PSR sort gate)” value is on record as “low polyreactivity”.
With “QVQLVESGGGLVQAGGSLRLSCAASGRIFTQYAMGWYRQAPGKERELVAAINASDGSTYADSVKGRFTISRDNAKNTVYLQMNSLKPEDSAVYFCYVTGGPYDFTRWSEFDHWGQGTQVTVSS”, the “polyreactivity (PSR sort gate)” value is on record as “low polyreactivity”.
The result for “QVQLVESGGGLVQAGGSLRLSCAASGRIFTRNAMGWYRQAPGKERELVAAIRWSGDSTYYADSVKGRFTISRDNAKNTVYLQMNSLKPEDTAVYYCAAYRQRSHRVGTKGHRVGYWGQVTQVTVSS” reads “high polyreactivity”.
The same measure for “QVQLVESGGGLVQAGGSLRLSCAASGRIFTRNAMGWYRQAPGKERQLVAAISHSGGSTYADSVKGRFTISRDNAKNTVYLQMNSLKPEDTAVYYCAADSPYGYYEGDYCGQGTQVTVSS”: “low polyreactivity”.
The same measure for “QVQLVESGGGLVQAGGSLRLSCAASGRIFTRSAMGWYRQAPGKERELVAVITRSGGSTYYADSVKGRFTISRDNAKKTVYLQMNSLKPEDTAVYYCAAKYYGEMYYWGQGTQVTVSS”: “low polyreactivity”; for “QVQLVESGGGLVQAGGSLRLSCAASGRIFTRYAIGWYRQAPGKERELVAAITYNGGSTYYADSVKGRFTISRDNAKNTVYLQMNSLKPEDTAVYDCNAVYLSWFGLFAGFDYWGQGTQVTVSS”: “high polyreactivity”.
“QVQLVESGGGLVQAGGSLRLSCAASGRIFTRYAMGWYRQAPGKERELVAAINYRGSSTYYADSVKGRFTISRDNAKKTVYLQMNSLTPEDTAVYYCNTYGQTDTYWRYYYWGQGTQVTVSS”: the “polyreactivity (PSR sort gate)” value was “high polyreactivity”.
The result for “QVQLVESGGGLVQAGGSLRLSCAASGRIFTRYAMGWYRQAPGKERELVDGITSRGGSTYYADSVKGRYTISRDNAKNTVYLQMNSLKPEDTAVYYCNKRYTGENDYWGQGTQVTVSS” reads “high polyreactivity”; that for “QVQLVESGGGLVQAGGSLRLSCAASGRIFTSNAMGWYRQAPGKEREFVAAITKRGGRTYYADSVKGRFTISRDNAKNTVYLQMNSLKPEDTAVYYCAAGATGTSYYGGDYWGQGTQVTVSS”, “high polyreactivity”; that for “QVQLVESGGGLVQAGGSLRLSCAASGRIFTTYAMGWYRPAPGKERELVAANTSGGRTNYADSVKGRFTISRDNAKNTVYLQMNSLKPEDTAVYYCAADGGVRRLTGLLYSFDYWGQGTQVTVSS”, “low polyreactivity”.
The same measure for “QVQLVESGGGLVQAGGSLRLSCAASGRIFTTYAMGWYRQAPGKEREFVAAINYSGGRTYYAESVKGRFTISRDNAKNTVYLQMISLKPEETAVYYCAARSLFRGDYWGQGTQVTVSS”: “high polyreactivity”.
The same measure for “QVQLVESGGGLVQAGGSLRLSCAASGRIFTTYAMGWYRQEPGKERELVAAISQNGGSTYYADSVKGRFTISRDNAKNTVYLQMNTLKPEDTAVYYCAAADYYGIRDLYASDGTHYYSWGQGTQVTVSS”: “low polyreactivity”.
“QVQLVESGGGLVQAGGSLRLSCAASGRIFTWKGMGWYRQAPGKERELVARISSGTRTNYADSVKGRFTISRDNAKNTVYLQMNCLKPEDTAVYYFAAAAKRSDAYHNRRYYWGQGTQVTVSS”: the “polyreactivity (PSR sort gate)” value is listed as “high polyreactivity”.
The same measure for “QVQLVESGGGLVQAGGSLRLSCAASGRIFTWYGMGWYSQAPGKERELVARITQRGGTTYYADSVKGRFTISRDNAKNTVYLQINSLKPEDTAFYYCATQYTYTGRRYYSYVDGSRYYYWGQGTQVTVSS”: “high polyreactivity”.
Consider “QVQLVESGGGLVQAGGSLRLSCAASGRIFTWYTMGWYRQAPGKERELVAAINRGGSTTYADSVKGRFTISRDNAKNTVYLQMNSLKPEDTAVYSCAAYRYTSRVYSYWRGYDYWGQGTQVTVSS”, for which the “polyreactivity (PSR sort gate)” value was “high polyreactivity”.
The result for “QVQLVESGGGLVQAGGSLRLSCAASGRIFTYNAMGWYRQAPGKERELDATITWRGGGTYYADSVKGRFTISRDNAKNTVYLQMNSLKPEDTAVYYCNRRLPGDGQYGYRRYDYWGQGTQVTVSS” reads “low polyreactivity”.
